Experiments:
[1] = target: human FcγRIIa, R131 allele (human) (UniProt P12318); test: flow cytometry on FcγRIIa (R131) transfectants
[2] = target: human FcγRIIa, H131 allele (human) (UniProt P12318); test: flow cytometry on FcγRIIa (H131) transfectants
[3] = target: human FcγRIIb (human) (UniProt P31994); test: flow cytometry on FcγRIIb transfectants
[4] = target: human FcγRIIb (human) (UniProt P31994); test: flow cytometry, background staining on peripheral B lymphocytes of 2B.1/2B.1 donors
[5] = target: human FcγRIIb (human) (UniProt P31994); test: flow cytometry, background staining on EBV-transformed B cells of 2B.1/2B.1 donors
[6] = target: human FcγRIIb (human) (UniProt P31994); test: flow cytometry, background staining on peripheral B lymphocytes of 2B.1/2B.4 donors
[7] = target: human FcγRIIb (human) (UniProt P31994); test: flow cytometry, background staining on EBV-transformed B cells of 2B.1/2B.4 donors
[8] = target: human FcγRIIb (human) (UniProt P31994); test: flow cytometry, background staining on EBV-transformed B cells of a 2B.4/2B.4 donor

Sequence of UniProt P31994 (P31994 43-310): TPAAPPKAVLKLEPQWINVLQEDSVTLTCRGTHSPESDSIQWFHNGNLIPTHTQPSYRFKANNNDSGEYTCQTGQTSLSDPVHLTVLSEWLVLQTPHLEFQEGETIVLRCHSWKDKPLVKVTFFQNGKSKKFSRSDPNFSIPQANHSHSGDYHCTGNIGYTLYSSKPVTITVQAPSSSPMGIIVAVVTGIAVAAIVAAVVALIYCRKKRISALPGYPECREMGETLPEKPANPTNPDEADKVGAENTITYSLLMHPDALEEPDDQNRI

fold difference against mAb IV.3 [1] [fold] | fold difference against mAb IV.3 [2] [fold] | fold staining against mAb IV.3 [3] [fold] | MFI [4] [MFI] | MFI [5] [MFI] | MFI [6] [MFI] | MFI [7] [MFI] | MFI [8] [MFI] | Substance
< 2 | < 2 | 10 | – | – | – | – | – | mAb AT-10 (antibody)
– | – | – | 4.1 | 3.6 | 3.9 | 3.6 | 3.9 | mIgG1 isotype control (antibody)
